The assay concerns the target CBP KIX domain (residues 586–672) (mouse, UniProt P45481 586-672). The assay can be described thus: NMR.

Where only a bound is given, the exact number is not on record here.

CBP KIX domain (residues 586–672), sequence (P45481 586-672): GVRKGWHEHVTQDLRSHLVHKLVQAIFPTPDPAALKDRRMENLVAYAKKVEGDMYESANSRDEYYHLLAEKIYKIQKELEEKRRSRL

A word on the Kd: it is the free concentration of one partner at which half of the binding sites on the other are occupied at equilibrium, for simple one-to-one binding. A high value points to lower affinity. Consider FSDLPWPL [BMAL1 TAD switch peptide (residues 619–626, FSDLPWPL)], for which the Kd is greater than 500 µM.
